# Reference: patent US7842460B2, “Method for assessing proteolytic enzyme activity using ubiquitin fusion substrate” (Progenra Inc., priority 2004, dated 2010)
# T1: yeast ULP1 protein (SUMO protease catalytic domain) (Saccharomyces cerevisiae, UniProt Q02724)
# T1 construct: treatment with the yeast ULP1 protein (SUMO protease catalytic domain)
# T1 sequence (Q02724 432-621 limits assumed): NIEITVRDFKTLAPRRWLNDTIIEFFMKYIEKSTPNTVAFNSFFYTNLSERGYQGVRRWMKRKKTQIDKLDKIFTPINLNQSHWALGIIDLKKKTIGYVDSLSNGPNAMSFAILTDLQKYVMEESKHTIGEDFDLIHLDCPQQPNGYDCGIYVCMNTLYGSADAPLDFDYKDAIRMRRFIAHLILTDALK
# T2: ULP1 SUMO protease (Saccharomyces cerevisiae, UniProt Q02724)
# T2 construct: treatment with the yeast ULP1 protein (SUMO protease catalytic domain)
# T2 sequence (Q02724 432-621 limits assumed): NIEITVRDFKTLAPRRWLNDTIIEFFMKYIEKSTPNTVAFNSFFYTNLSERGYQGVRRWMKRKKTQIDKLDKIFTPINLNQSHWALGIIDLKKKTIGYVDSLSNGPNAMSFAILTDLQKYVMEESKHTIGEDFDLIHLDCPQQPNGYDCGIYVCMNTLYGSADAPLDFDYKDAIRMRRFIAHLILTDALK
# Legend:
# [1] = target: T1, yeast ULP1 protein (SUMO protease catalytic domain); assay: Cleavage of SUMO-GPATase by yeast ULP1 (SDS-PAGE); assay type: biochemical; settings: 3 hours
# Experimental: The SUMO protein was cleaved from a SUMO-GPATase fusion protein by treatment with the yeast ULP1 protein (SUMO protease catalytic domain). Approximately 5 μg SUMO-GPATase were incubated at 30° C. for 3 hours with increasing concentrations of the ULP1 enzyme in a reaction mixture containing 50 mM Tris-HCl pH 7.5, 1 mM EDTA, 10 mM DTT. The reaction was quenched by addition of SDS-PAGE sample buffer, heated, and loaded directly on a 12% SDS-polyacrylamide gel, and electrophoresed. After electrophoresis, the gel was stained to visualize the proteins. […] This inability of the ULP1 enzyme to cut the fusion protein may reflect the occurrence of steric hindrance around the cleavage site, or some partial modification of the junction sequence, e.g. oxidation of the Cysteine residue at the amino-terminal end of GPATase.
# ULP1 SUMO protease = target: T2, ULP1 SUMO protease; assay: In vitro GPATase activity assay (coupled GDH assay) of fusion -/+ Ulp1; assay type: biochemical, yeast
# Text: GPATase, a glutaminase enzyme, hydrolizes 5-phospho ribosyl pyrophosphate (PRPP) […], 5-phosphoribosyl-(b)1-amine (PRA) and pyrophosphate (PPi). This glutaminase reaction was monitored by measuring the production of glutamate by means of a coupled glutamate dehydrogenase (GDH) assay under standard reaction conditions described by Messenger and Zalkin (1979).
# […]
# The coupled GDH assay employed to assess GPATase activity was examined for accuracy. Increasing amounts of the purified SUMO-GPATase fusion protein, either untreated or cleaved by the ULP1 SUMO protease, were incubated in the presence of glutamine and PRPP for a fixed period of time, and the completed reaction was then used as substrate in a GDH assay. […] This is particularly so at enzyme concentrations of 1 μg or less. Thus, the amount of NAD^+ reduced in the GDH reaction directly correlates with the amount of active GPATase enzyme in the initial reaction. In addition, treatment with ULP1 results in at least a 10-fold increase in the glutaminase activity of GPATase, despite the fact that only partial cleavage of SUMO-GPATase has been observed thus far.
molecule,measurement,setting,value
"SUMO-GPATase: Fusion of SUMO (Smt3) C-terminal Gly-Gly to mature E. coli glutamine phosphoribosylpyrophosphate amidotransferase N-terminus (protein, left off: large carriers, Fusion of SUMO (Smt3) C-terminal Gly-Gly to mature E. coli glutamine phosphoribosylpyrophosphate amidotransferase N-terminus) CGIVGIAGVMPVNQSIYDALTVLQHRGQDAAGIITIDANNCFRLRKANGLVSDVFEARHMQRLQGNMGIGHVRYPTAGSSSASEAQPFYVNSPYGITLAHNGNLTNAHELRKKLFEEKRRHINTTSDSEILLNIFASELDNFRHYPLEADNIFAAIAATNRLIRGAYACVAMIIGHGMVAFRDPNGIRPLVLGKRDIDENRTEYMVASESVALDTLGFDFLRDVAPGEAIYITEEGQLFTRQCADNPVSNPCLFEYVYFARPDSFIDKISVYSARVNMGTKLGEKIAREWEDLDIDVVIPIPETSCDIALEIARILGKPYRQGFVKNRYVGRTFIMPGQQLRRKSVRRKLNANRAEFRDKNVLLVDDSIVRGTTSEQIIEMAREAGAKKVYLASAAPEIRFPNVYGIDMPSATELIAHGREVDEIRQIIGADGLIFQDLNDLIDAVRAENPDIQQFECSVFNGVYVTKDVDQGYLDFLDTLRNDDAKAVQRQNEVENLEMHNEG",amount of Ulp1 at which cleavage of the fusion was demonstrated,"[1]; approx. 5 μg SUMO-GPATase, 30° C.",0.009 units
same,completeness of cleavage,"[1]; with as much as 78.3 Units Ulp1, 30° C.",cleavage was never fully achieved
same,increase in the glutaminase activity of GPATase on treatment with ULP1,"ULP1 SUMO protease; ULP1-cleaved vs untreated fusion, only partial cleavage",≥ 10 fold
same,absorbance at OD 363 in GDH assay (GPATase activity),ULP1 SUMO protease; absence of Ulp1,this increase of absorbance did not occur
same,absorbance at OD 363 in GDH assay (GPATase activity),ULP1 SUMO protease; fusion incubated 30 minutes with Ulp1,an increase is absorbance
